Ends that are not written are not given here. * marks the point of attachment. Palmitoyl = CCCCCCCCCCCCCCCC(=O)*; NHhexadecyl = CCCCCCCCCCCCCCCCN*
Biological target: CXCR4 receptor (human, UniProt P61073 1-352)
Assay: cell-based or functional assay

Sequence of CXCR4 receptor (P61073 whole entry): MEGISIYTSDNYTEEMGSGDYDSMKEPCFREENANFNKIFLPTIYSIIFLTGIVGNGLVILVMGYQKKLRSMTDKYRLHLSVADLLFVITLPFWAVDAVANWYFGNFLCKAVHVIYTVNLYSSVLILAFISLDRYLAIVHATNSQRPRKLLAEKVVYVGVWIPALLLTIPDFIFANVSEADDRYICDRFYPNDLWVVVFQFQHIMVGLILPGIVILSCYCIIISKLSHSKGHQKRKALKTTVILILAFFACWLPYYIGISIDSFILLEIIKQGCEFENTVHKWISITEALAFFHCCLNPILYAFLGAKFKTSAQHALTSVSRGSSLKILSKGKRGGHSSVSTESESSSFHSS

B1: CXCR-4 receptor Compound No. 43 (peptide)
peptide: Palmitoyl-KKLRSMTDKYRLH-NH2
SMILES: CCCCCCCCCCCCCCCC(=O)N[C@@H](CCCCN)C(=O)N[C@@H](CCCCN)C(=O)N[C@@H](CC(C)C)C(=O)N[C@@H](CCCNC(=N)N)C(=O)N[C@@H](CO)C(=O)N[C@@H](CCSC)C(=O)N[C@H](C(=O)N[C@@H](CC(=O)O)C(=O)N[C@@H](CCCCN)C(=O)N[C@@H](Cc1ccc(O)cc1)C(=O)N[C@@H](CCCNC(=N)N)C(=O)N[C@@H](CC(C)C)C(=O)N[C@@H](Cc1c[nH]cn1)C(N)=O)[C@@H](C)O
In the case of B1, the “AUC (% of), CHTX, SUP B-15, 1.0 uM” value is reported as 70.8%, the “Max (% of), CHTX, SUP B-15, 1.0 uM” value is reported as 55.8% and the “Peak Ratio, CHTX, CEM, 0.01 uM” value is reported as 1. The “Peak Ratio, CHTX, CEM, 0.03 uM” value was 1, the “Peak Ratio, CHTX, CEM, 0.1 uM” value was 0.2 and the “Peak Ratio, CHTX, CEM, 0.3 uM” value was 0.04. The “Peak Ratio, CHTX, CEM, 3.0 uM” value was 0.2 and the “Peak Ratio, CHTX, SUP B-15, 1.0 uM” value was 0.04.

B2: CXCR4 i1 loop compound 59 (peptide)
peptide: Ac-MGYQKKLRSMTDK-NHhexadecyl
SMILES: CCCCCCCCCCCCCCCCNC(=O)[C@H](CCCCN)NC(=O)[C@H](CC(=O)O)NC(=O)[C@@H](NC(=O)[C@H](CCSC)NC(=O)[C@H](CO)NC(=O)[C@H](CCCNC(=N)N)NC(=O)[C@H](CC(C)C)NC(=O)[C@H](CCCCN)NC(=O)[C@H](CCCCN)NC(=O)[C@H](CCC(N)=O)NC(=O)[C@H](Cc1ccc(O)cc1)NC(=O)CNC(=O)[C@H](CCSC)NC(C)=O)[C@@H](C)O
For B2, the “AUC (% of), CHTX, CEM, 1.0 uM” value was 69%, the “AUC (% of), CHTX, CEM, 1.0 um” value was 51.6% and the “Max (% of), CHTX, CEM, 1.0 uM” value was 84.5%. For the same binder, the “Max (% of), CHTX, CEM, 1.0 um” value was 59.8%, the “Peak Ratio, CHTX, CEM, 1.0 uM” value was 1 and the “Peak Ratio, CHTX, CEM, 1.0 um” value was 1.

B3: Compound No. 44 (Pal-KKLRSMTDKYRL-amide) (peptide)
peptide: Palmitoyl-KKLRSMTDKYRL-NH2
SMILES: CCCCCCCCCCCCCCCC(=O)N[C@@H](CCCCN)C(=O)N[C@@H](CCCCN)C(=O)N[C@@H](CC(C)C)C(=O)N[C@@H](CCCNC(=N)N)C(=O)N[C@@H](CO)C(=O)N[C@@H](CCSC)C(=O)N[C@H](C(=O)N[C@@H](CC(=O)O)C(=O)N[C@@H](CCCCN)C(=O)N[C@@H](Cc1ccc(O)cc1)C(=O)N[C@@H](CCCNC(=N)N)C(=O)N[C@@H](CC(C)C)C(N)=O)[C@@H](C)O
With B3 the “AUC (% of), CHTX, SUP B-15, 1.0 uM” value was 25.9%, the “Max (% of), CHTX, SUP B-15, 1.0 uM” value was 31.5% and the “Peak Ratio, CHTX, SUP B-15, 1.0 uM” value was 0.2.

B4: CXCR4 i1 loop compound 48 (peptide)
peptide: MGYQKKLRSMTDKYRI-NH2
modifications: not fully specified (N-terminus); also: further groups not given here
With B4 the “AUC (% of), CHTX, CEM, 1.0 uM” value was 53%, the “Max (% of), CHTX, CEM, 1.0 uM” value was 53.5% and the “Peak Ratio, CHTX, CEM, 1.0 uM” value was 5.

B5: CXCR4 i1 loop compound 33 (peptide)
peptide: MGYQKKLRSMTD-NH2
modifications: not fully specified (N-terminus); also: further groups not given here
In the case of B5, the “Peak Ratio, CHTX, CEM, 1.0 uM” value is reported as 1.

B6: CXCR4 i1 loop compound 35 (peptide)
peptide: Palmitoyl-VMGYQKKLRSMTD-NH2
SMILES: CCCCCCCCCCCCCCCC(=O)N[C@H](C(=O)N[C@@H](CCSC)C(=O)NCC(=O)N[C@@H](Cc1ccc(O)cc1)C(=O)N[C@@H](CCC(N)=O)C(=O)N[C@@H](CCCCN)C(=O)N[C@@H](CCCCN)C(=O)N[C@@H](CC(C)C)C(=O)N[C@@H](CCCNC(=N)N)C(=O)N[C@@H](CO)C(=O)N[C@@H](CCSC)C(=O)N[C@H](C(=O)N[C@@H](CC(=O)O)C(N)=O)[C@@H](C)O)C(C)C
For B6, the “AUC (% of), CHTX, CEM, 1.0 uM” value was 57.9%, the “AUC (% of), CHTX, SUP B-15, 1.0 uM” value was 31.7% and the “Max (% of), CHTX, CEM, 1.0 uM” value was 57%. For the same binder, the “Max (% of), CHTX, SUP B-15, 1.0 uM” value was 49.3%, the “Peak Ratio, CHTX, CEM, 1.0 uM” value was 1 and the “Peak Ratio, CHTX, SUP B-15, 1.0 uM” value was 0.2.

B7: CXCR4 i1 loop compound 46 (peptide)
peptide: Palmitoyl-KKLRSMTDKY-NH2
SMILES: CCCCCCCCCCCCCCCC(=O)N[C@@H](CCCCN)C(=O)N[C@@H](CCCCN)C(=O)N[C@@H](CC(C)C)C(=O)N[C@@H](CCCNC(=N)N)C(=O)N[C@@H](CO)C(=O)N[C@@H](CCSC)C(=O)N[C@H](C(=O)N[C@@H](CC(=O)O)C(=O)N[C@@H](CCCCN)C(=O)N[C@@H](Cc1ccc(O)cc1)C(N)=O)[C@@H](C)O
For B7, the “AUC (% of), CHTX, SUP B-15, 1.0 uM” value was 87.2%, the “Max (% of), CHTX, SUP B-15, 1.0 uM” value was 82.9% and the “Peak Ratio, CHTX, SUP B-15, 1.0 uM” value was 0.2.

B8: CXCR4 i1 loop compound 54 (peptide)
peptide: MGYQKKLRSMTDKYRLHL-NH2
modifications: not fully specified (N-terminus); also: N-terminal T-L: Myr, dual lipid backbone
B8 was tested, and the “Peak Ratio, CHTX, CEM, 1.0 uM” value was 1.

B9: CXCR4 i1 loop compound 69 (peptide)
peptide: Palmitoyl-SGYQKKLRSSTD-NH2
SMILES: CCCCCCCCCCCCCCCC(=O)N[C@@H](CO)C(=O)NCC(=O)N[C@@H](Cc1ccc(O)cc1)C(=O)N[C@@H](CCC(N)=O)C(=O)N[C@@H](CCCCN)C(=O)N[C@@H](CCCCN)C(=O)N[C@@H](CC(C)C)C(=O)N[C@@H](CCCNC(=N)N)C(=O)N[C@@H](CO)C(=O)N[C@@H](CO)C(=O)N[C@H](C(=O)N[C@@H](CC(=O)O)C(N)=O)[C@@H](C)O
B9 was tested, and the “AUC (% of), CHTX, CEM, 1.0 uM” value was 100%, the “Max (% of), CHTX, CEM, 1.0 uM” value was 93.1% and the “Peak Ratio, CHTX, CEM, 1.0 uM” value was 1.

B10: CXCR4 i1 loop compound 49 (peptide)
peptide: Palmitoyl-MGYQKKLRSMTDKYRI-NH2
SMILES: CCCCCCCCCCCCCCCC(=O)N[C@@H](CCSC)C(=O)NCC(=O)N[C@@H](Cc1ccc(O)cc1)C(=O)N[C@@H](CCC(N)=O)C(=O)N[C@@H](CCCCN)C(=O)N[C@@H](CCCCN)C(=O)N[C@@H](CC(C)C)C(=O)N[C@@H](CCCNC(=N)N)C(=O)N[C@@H](CO)C(=O)N[C@@H](CCSC)C(=O)N[C@H](C(=O)N[C@@H](CC(=O)O)C(=O)N[C@@H](CCCCN)C(=O)N[C@@H](Cc1ccc(O)cc1)C(=O)N[C@@H](CCCNC(=N)N)C(=O)N[C@H](C(N)=O)[C@@H](C)CC)[C@@H](C)O
With B10 the “AUC (% of), CHTX, CEM, 1.0 uM” value was 50.9%, the “Max (% of), CHTX, CEM, 1.0 uM” value was 62.7% and the “Peak Ratio, CHTX, CEM, 1.0 uM” value was 0.2.

B11: CXCR4 i1 loop compound 55 (peptide)
peptide: Palmitoyl-MGYQKKLRSMTDKYRLHLSV-NH2
SMILES: CCCCCCCCCCCCCCCC(=O)N[C@@H](CCSC)C(=O)NCC(=O)N[C@@H](Cc1ccc(O)cc1)C(=O)N[C@@H](CCC(N)=O)C(=O)N[C@@H](CCCCN)C(=O)N[C@@H](CCCCN)C(=O)N[C@@H](CC(C)C)C(=O)N[C@@H](CCCNC(=N)N)C(=O)N[C@@H](CO)C(=O)N[C@@H](CCSC)C(=O)N[C@H](C(=O)N[C@@H](CC(=O)O)C(=O)N[C@@H](CCCCN)C(=O)N[C@@H](Cc1ccc(O)cc1)C(=O)N[C@@H](CCCNC(=N)N)C(=O)N[C@@H](CC(C)C)C(=O)N[C@@H](Cc1c[nH]cn1)C(=O)N[C@@H](CC(C)C)C(=O)N[C@@H](CO)C(=O)N[C@H](C(N)=O)C(C)C)[C@@H](C)O
For B11, the “Peak Ratio, CHTX, CEM, 1.0 uM” value was 0.2.

B12: CXCR4 i1 loop compound 45 (peptide)
peptide: Palmitoyl-KKLRSMTDKYR-NH2
SMILES: CCCCCCCCCCCCCCCC(=O)N[C@@H](CCCCN)C(=O)N[C@@H](CCCCN)C(=O)N[C@@H](CC(C)C)C(=O)N[C@@H](CCCNC(=N)N)C(=O)N[C@@H](CO)C(=O)N[C@@H](CCSC)C(=O)N[C@H](C(=O)N[C@@H](CC(=O)O)C(=O)N[C@@H](CCCCN)C(=O)N[C@@H](Cc1ccc(O)cc1)C(=O)N[C@@H](CCCNC(=N)N)C(N)=O)[C@@H](C)O
For B12, the “AUC (% of), CHTX, SUP B-15, 1.0 uM” value was 178%, the “Max (% of), CHTX, SUP B-15, 1.0 uM” value was 194% and the “Peak Ratio, CHTX, SUP B-15, 1.0 uM” value was 1.

From patent US20130210709A1 (ANCHOR THERAPEUTICS, published 2013)
